In patent publication US20170295781A1 (AGROSAVFE N V, published 2017):

Tests used:
[1] = target: potato lectin (Sigma) (potato) (UniProt Q9S8M0); experiment: ELISA-like assay, lambda-cyhalothrin microcapsules on potato lectin-coated wells, surface coverage 100%
[2] = target: potato lectin (Sigma) (potato) (UniProt Q9S8M0); experiment: ELISA-like assay, Uvitex OB microcapsules on potato lectin-coated wells, surface coverage 20%
[3] = target: potato lectin (Sigma) (potato) (UniProt Q9S8M0); experiment: ELISA-like assay, Uvitex OB microcapsules on potato lectin-coated wells, surface coverage 4%
[4] = target: potato lectin (Sigma) (potato) (UniProt Q9S8M0); experiment: ELISA-like assay, lambda-cyhalothrin microcapsules on potato lectin-coated wells, surface coverage 4%
[5] = target: potato lectin (Sigma) (potato) (UniProt Q9S8M0); experiment: ELISA-like assay, Uvitex microcapsules on wells coated with 5 ug/well potato lectin, surface coverage 100%
[6] = target: potato lectin (Sigma) (potato) (UniProt Q9S8M0); experiment: ELISA-like assay, Uvitex microcapsules on wells coated with 5 ug/well potato lectin, surface coverage 20%
[7] = target: potato lectin (Sigma) (potato) (UniProt Q9S8M0); experiment: ELISA-like assay, lambda-cyhalothrin microcapsules on potato lectin-coated wells, surface coverage 20%
[8] = target: potato lectin (Sigma) (potato) (UniProt Q9S8M0); experiment: ELISA-like assay, Uvitex microcapsules on wells coated with 5 ug/well potato lectin, surface coverage 4%
[9] = target: potato lectin (Sigma) (potato) (UniProt Q9S8M0); experiment: ELISA-like assay, Uvitex OB microcapsules on potato lectin-coated wells, surface coverage 100%
potato lectin (Sigma) [10] = target: T1, potato lectin (Sigma) (potato, UniProt Q9S8M0 23-323); experiment: ELISA, potato lectin coated at 100 ug/ml, VHH at 3 ug/ml, anti-histidine detection
T1 construct: Bought glycoprotein coated on ELISA plates
T1 sequence (looked up): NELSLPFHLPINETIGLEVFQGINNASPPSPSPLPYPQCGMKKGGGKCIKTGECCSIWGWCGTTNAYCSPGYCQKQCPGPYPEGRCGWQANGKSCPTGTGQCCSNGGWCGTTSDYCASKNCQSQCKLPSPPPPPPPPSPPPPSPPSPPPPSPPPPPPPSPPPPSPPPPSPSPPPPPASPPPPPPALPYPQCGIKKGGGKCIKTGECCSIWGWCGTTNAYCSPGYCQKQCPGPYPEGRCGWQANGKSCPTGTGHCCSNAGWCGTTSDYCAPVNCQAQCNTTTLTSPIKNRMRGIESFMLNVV
Procedure: ELISA plates (Maxisorp, Nunc) coated with 100 μl per well 100 μg/ml potato lectin (Sigma) in PBS were coated at 4° C. overnight and coating was continued at room temperature for 1 hour on the next day. Plates were washed three times with PBS/0.05%-TWEEN®-20 and blocked with 5% skimmed milk in PBS for 1 hour. VHH (3 μg/ml) were transferred to the potato lectin-coated plates and VHH antibody fragments were allowed to bind for 1 hour at room temperature. Bound VHH were detected with sequential incubations with monoclonal mouse anti-histidine antibodies (Abd Serotec) and rabbit anti-mouse IgG whole molecule antibodies conjugated with alkaline phosphatase (RaM/AP) (Sigma) in 1% MPBS/0.05%-TWEEN®-20. Unbound antibodies were removed by washing three times with PBS/0.05%-TWEEN®-20 after each antibody incubation. The plates were washed an additional two times with PBS and 100 μl pNPP disodium hexahydrate substrate (Sigma) was added to each well and the absorbance at 405 nm was measured (see Table 2).

potato lectin (Sigma) [11] = target: T1, potato lectin (Sigma); experiment: ELISA-like assay, Uvitex microcapsules on potato lectin-coated wells, 25-fold less microcapsules
Procedure: An ELISA-like assay was performed using high bind half area microplates (Greiner Bio-One) coated with 5 μg/well potato lectin. Control wells included blank wells or wells coated with unrelated antigens. Plates were washed three times with PBS with 0.05%-TWEEN®-20 and blocked with 5% skimmed milk in PBS for 1 to 2 hours. VHH-coupled Uvitex-containing microcapsules were diluted to appropriate densities in 1% skimmed milk in PBS with 0.05%-TWEEN®-20. Five-fold serial dilution series were prepared and allowed to bind to the surface to compare binding of microcapsules coupled with monovalent or bivalent VHH. Microcapsules were added to the antigen-coated or control wells and allowed to bind for 1 hour. Unbound microcapsules were removed by washing five times with PBS with 0.05%-TWEEN®-20. The bottoms of ELISA plate wells were analyzed for bound microcapsules on a macrozoom microscope system (Nikon). Microcapsules were counted using Volocity image analysis software (Perkin Elmer). A DAPI filter was used to visualize Uvitex microcapsules. […] The surface area of microcapsules with coupled bivalent VHH was 15-fold above the surface area of blank microcapsules applied at this microcapsule density while the surface area of microcapsules with monovalent VHH was only six-fold above the surface area of blank microcapsules applied at this microcapsule density. […]

unrelated antigen [12] = experiment: ELISA-like assay, Uvitex microcapsules on wells coated with unrelated antigen, surface coverage 100%
unrelated antigen [13] = experiment: ELISA-like assay, Uvitex microcapsules on wells coated with unrelated antigen, surface coverage 4%
unrelated antigen [14] = experiment: ELISA-like assay, Uvitex microcapsules on wells coated with unrelated antigen, surface coverage 20%

“unrelated control VHH coupled to microcapsules” was tested, and the counts of bound microcapsules [1] was 828 counts, the area of bound microcapsules (area (unit not given)) [2] was 35.4 and the area of bound microcapsules (area (unit not given)) [3] was 7.53. The counts of bound microcapsules [4] was 348 counts, the surface area of bound microcapsules (area (unit not given)) [5] was 142 and the surface area of bound microcapsules (area (unit not given)) [6] was 43.5. For the same molecule, the counts of bound microcapsules [7] was 709 counts, the surface area of bound microcapsules (area (unit not given)) [8] was 19.2 and the area of bound microcapsules (area (unit not given)) [9] was 16.7.

B1: VHH 3E6 (VHH)
VHH: QVQLQESGGGLVQPGGTLSLSCAASGFNVRWYGMGWFRQAPGKEREGVACISALQETTAYADSVKGRFTLSRDNPKNTLSLQMNNLQPEDTGVYYCATTDCDDSSRMTYTSYLGQGTQVTVSS
notes: Purified hexahistidine-tagged VHH from E. coli periplasm; not shown: hexahistidine tag
B1 was tested, and the “absorbance at 405 nm” value (potato lectin (Sigma) [10]) was 4 A405.

B2: VHH 3E6 coupled to polyurea microcapsules (VHH)
VHH: QVQLQESGGGLVQPGGTLSLSCAASGFNVRWYGMGWFRQAPGKEREGVACISALQETTAYADSVKGRFTLSRDNPKNTLSLQMNNLQPEDTGVYYCATTDCDDSSRMTYTSYLGQGTQVTVSS
modifications: coupled by carbodiimide (EDC) chemistry to carboxylic acid groups on the microcapsule shell
notes: also called Monovalent VHH 3E6; monovalent VHH; not shown: hexahistidine tag
With B2 the “fold surface area above blank microcapsules” value (potato lectin (Sigma) [11]) was 6 fold.

B3: VHH 5C4 (VHH)
VHH: QVQLQESGGGLVQPGGSLRLSCAASGFSLRYFGIGWFRQVAGKEREPVSCSNVRDGNTYYADSVKGRFTISRDNVRNTLYLQMNSLKPEDTAVYSCATTDCEATTWGTYRGYFGQGTQVTVSS
notes: not shown: hexahistidine tag
In the case of B3, the “absorbance at 405 nm” value (potato lectin (Sigma) [10]) is reported as 4 A405.

B4: VHH 5G5 (VHH)
VHH: QVQLQESGGGLVQPGGSLRLSCAASGFSLRYFGIGWFRQAAGKEREGISCSNVRDGNTYYADSVKGRFTISRDNVRNMLYLQMNNLKPDDTAVYSCATTDCEATTWGTYRGYFGQGTQVTVSS
notes: not shown: hexahistidine tag
B4 was tested, and the “absorbance at 405 nm” value (potato lectin (Sigma) [10]) was 4 A405.

B5: VHH 7D2 (VHH)
VHH: QVQLQESGGGLVQPGRSLKVACAAAGFSLRYYGIGWFRQAPGKEREAVSCTSANDGSTYYRDSVRGRFTISRDDGKNTVYLQMNRLKPEDTAVYYCATTDCDATSWGTWINYYGQGTQVTVSS
notes: not shown: hexahistidine tag
For B5, the “absorbance at 405 nm” value (potato lectin (Sigma) [10]) was 4 A405.

B6: VHH 5D4 (VHH)
VHH: QVQLQESGGGLVQPGGSLRLSCAASGFDMRRFGIGWFRQVAGKEREGVSCSNVHDGTTYYTNDVKGRFTIVRDNTKNMLYLQMNKLRPEDTAVYSCATTDCEATAWGTYRGYFGQGTQVTVSS
notes: not shown: hexahistidine tag
In the case of B6, the “absorbance at 405 nm” value (potato lectin (Sigma) [10]) is reported as 4 A405.

B7: Bivalent VHH 3E6 coupled to polyurea microcapsules (VHH)
chain: QVQLQESGGGLVQPGGTLSLSCAASGFNVRWYGMGWFRQAPGKEREGVACISALQETTAYADSVKGRFTLSRDNPKNTLSLQMNNLQPEDTGVYYCATTDCDDSSRMTYTSYLGQGTQVTVSSGGGGSGGGSQVQLQESGGGLVQPGGTLSLSCAASGFNVRWYGMGWFRQAPGKEREGVACISALQETTAYADSVKGRFTLSRDNPKNTLSLQMNNLQPEDTGVYYCATTDCDDSSRMTYTSYLGQGTQVTVSSAAAEQKLISEEDLNGAAHHHHHH
modifications: coupled by carbodiimide chemistry to the microcapsule shell
For B7, the “fold surface area above blank microcapsules” value (potato lectin (Sigma) [11]) was 15 fold, the surface area of bound microcapsules (area (unit not given)) (unrelated antigen [12]) was 45.7 and the surface area of bound microcapsules (area (unit not given)) (unrelated antigen [13]) was 15. It also gave a surface area of bound microcapsules (area (unit not given)) (unrelated antigen [14]) of 22.1.
